Measurements published in IntAct's records for PubMed 22796944.

What was measured:
cdc73_yeast CDC73 = cdc73_yeast CDC73 (UniProt Q06697)
rtf1_yeast RTF1 = rtf1_yeast RTF1 (UniProt P53064)
rtf1_yeast RTF1, sequence (P53064 whole entry): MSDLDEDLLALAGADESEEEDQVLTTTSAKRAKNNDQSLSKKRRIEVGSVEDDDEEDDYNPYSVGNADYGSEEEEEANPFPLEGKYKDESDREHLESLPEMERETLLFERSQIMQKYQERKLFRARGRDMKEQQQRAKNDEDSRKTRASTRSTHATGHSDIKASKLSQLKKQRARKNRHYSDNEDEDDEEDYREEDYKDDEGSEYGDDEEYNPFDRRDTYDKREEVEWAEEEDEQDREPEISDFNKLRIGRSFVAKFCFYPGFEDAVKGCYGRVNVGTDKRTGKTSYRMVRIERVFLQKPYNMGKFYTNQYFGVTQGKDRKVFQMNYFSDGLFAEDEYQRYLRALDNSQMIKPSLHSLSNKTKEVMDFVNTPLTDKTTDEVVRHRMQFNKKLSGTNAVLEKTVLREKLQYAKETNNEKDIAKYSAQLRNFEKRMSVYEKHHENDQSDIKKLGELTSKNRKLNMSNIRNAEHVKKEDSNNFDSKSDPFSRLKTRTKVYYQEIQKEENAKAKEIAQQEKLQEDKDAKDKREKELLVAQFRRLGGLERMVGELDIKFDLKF

cdc73_yeast CDC73, sequence (Q06697 whole entry): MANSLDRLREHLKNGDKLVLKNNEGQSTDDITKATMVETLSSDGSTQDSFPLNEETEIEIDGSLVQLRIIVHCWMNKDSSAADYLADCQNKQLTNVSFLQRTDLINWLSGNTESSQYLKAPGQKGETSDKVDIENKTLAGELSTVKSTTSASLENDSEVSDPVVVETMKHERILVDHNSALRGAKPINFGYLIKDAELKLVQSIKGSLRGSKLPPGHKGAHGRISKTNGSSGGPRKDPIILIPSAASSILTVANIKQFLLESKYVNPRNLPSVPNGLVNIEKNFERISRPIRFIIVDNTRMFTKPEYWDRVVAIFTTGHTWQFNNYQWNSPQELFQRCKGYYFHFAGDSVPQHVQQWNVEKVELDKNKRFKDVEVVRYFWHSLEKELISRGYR

Substance | effect of a mutation on the interaction (cdc73_yeast CDC73) | effect of a mutation on the interaction (rtf1_yeast RTF1)
DNA-directed RNA polymerase II subunit RPB1 (Saccharomyces cerevisiae), P04050 S1557D | decreasing interaction | disrupting interaction
DNA-directed RNA polymerase II subunit RPB1 (Saccharomyces cerevisiae), P04050 S1560D | decreasing interaction | disrupting interaction
